The results in this text go back to US20260008817A1, “CYCLIC PEPTIDE OR SALT THEREOF, AND USES THEREOF” (FUJIFILM Corporation, priority 2023, published 2026).

For assay [1], the target named is T1, FGFR3 Protein, Human, Recombinant (ECD, His Tag) (Homo sapiens, UniProt P22607).
T1 construct: FGFR3 Protein, Human, Recombinant (ECD, His Tag); His tag; purchased Sino Biological 16044-H08H
T1 sequence (P22607 23-375 limits assumed): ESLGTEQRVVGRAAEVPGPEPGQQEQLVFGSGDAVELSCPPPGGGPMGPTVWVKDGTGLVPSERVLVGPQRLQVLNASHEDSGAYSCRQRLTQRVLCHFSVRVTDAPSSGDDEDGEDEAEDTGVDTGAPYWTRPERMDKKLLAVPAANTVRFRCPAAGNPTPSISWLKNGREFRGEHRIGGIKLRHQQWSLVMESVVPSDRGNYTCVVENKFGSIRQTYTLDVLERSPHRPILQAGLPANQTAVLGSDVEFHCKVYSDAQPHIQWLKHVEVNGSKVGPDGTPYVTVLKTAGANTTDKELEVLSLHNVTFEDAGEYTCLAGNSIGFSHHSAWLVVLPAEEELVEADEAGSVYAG
In words: SPR FGFR versatility, FGFR3 on immobilized cyclic peptide. The assay is classed as binding. The settings on record: 1 μmol/L FGFR, 25° C. The method, then: (§1) The binding of the cyclic peptide to various types of FGFRs was evaluated using a surface plasmon resonance (SPR) method.
(§2) The binding affinity of the chemically synthesized cyclic peptide to FGFR was evaluated by the following procedure.
(§3) A CM5 sensor chip (Cytiva, 29149603) was set in Biacore-T200 (manufactured by Cytiva) which is a surface plasmon resonance device, and an HBS-EP buffer (Cytiva, BR100826) was added as a running buffer at a flow rate of 10 μL/min to equilibrate the flow channel. Next, 70 μL of a mixed aqueous solution of 0.2 mol/L 1-(3-dimethylaminopropyl)-3-ethylcarbodiimide (EDC) and 0.05 mol/L N-hydroxysuccinimide (NHS) was added to activate the sensor chip. Then, a cyclic peptide prepared to 2 mg/mL in HBS-EP buffer was added thereto to perform immobilization at about 200 RU. […]
(§4) After various FGFRs (FGFR1 Protein, Human, Recombinant (His Tag) (Sino Biological, 10616-H08H), FGFR3 Protein, Human, Recombinant (ECD, His Tag) (Sino Biological, 16044-H08H), FGFR4 Protein, Human, Recombinant (His Tag) (Sino Biological, 10538-H08H)) diluted with HBS-EP to 1 μmol/L at 25° C. was added to each flow channel of the cyclic peptide-immobilized sensor chip prepared above, for 10 minutes, HBS-EP was allowed to flow as a running buffer for 30 minutes, and the binding of various FGFRs to the cyclic peptide was measured. […]

The target in assay [2] is T2, FGFR1 Protein, Human, Recombinant (His Tag) (Homo sapiens, UniProt P11362).
T2 construct: His tag; purchased Sino Biological 10616-H08H
T2 sequence (P11362 22-285 isoform P11362-14 limits assumed): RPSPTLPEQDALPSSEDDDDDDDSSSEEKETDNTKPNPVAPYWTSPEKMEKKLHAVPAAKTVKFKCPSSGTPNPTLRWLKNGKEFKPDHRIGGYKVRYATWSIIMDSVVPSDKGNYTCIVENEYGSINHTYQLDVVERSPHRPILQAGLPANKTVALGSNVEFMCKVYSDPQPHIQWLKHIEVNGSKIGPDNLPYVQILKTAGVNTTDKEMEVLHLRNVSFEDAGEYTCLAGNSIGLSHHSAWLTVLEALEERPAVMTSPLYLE
In words: SPR FGFR versatility, FGFR1 on immobilized cyclic peptide. The assay is classed as binding. The settings on record: 1 μmol/L FGFR, 25° C. Here is the method:
as §1, §2, §3, §4

Regarding “335 (ACVWTFDRHAQEISQALHKVKKK; not fully specified; Description of Artificial Sequence: Cyclic peptide) [compound 335]”, the “Evaluation result of binding affinity to FGFR3” value in assay [1] was “B (The binding amount is 0.01 molecules of FGFR/one molecule of the cyclic peptide or more and less than 0.05 molecules of FGFR/one molecule of the cyclic peptide.)”. The “Evaluation result of binding affinity to FGFR1” value in assay [2] is on record as “A (The binding amount is 0.05 molecules of FGFR/one molecule of the cyclic peptide or more.)”.
